Holding throughout (assay): saturation binding ELISA (immobilized ligand)
Test [1] concerns the target CML.
The target of test [2] is T1, amphoterin (UniProt P09429 1-215).
T1 chain: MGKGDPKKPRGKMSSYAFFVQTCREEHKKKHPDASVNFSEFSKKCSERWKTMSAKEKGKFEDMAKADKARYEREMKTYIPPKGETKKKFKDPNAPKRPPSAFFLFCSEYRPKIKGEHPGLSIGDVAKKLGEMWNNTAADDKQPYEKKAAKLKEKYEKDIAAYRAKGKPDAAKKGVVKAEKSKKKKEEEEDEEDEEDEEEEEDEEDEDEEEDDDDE

In test [3] the target is T2, S100b (UniProt P04271 2-92).
T2 chain: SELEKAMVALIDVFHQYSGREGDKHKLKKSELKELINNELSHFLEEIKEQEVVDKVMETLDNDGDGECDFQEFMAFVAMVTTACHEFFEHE

These results are taken from US20080199467A1 (published 2008).

B1: TTP4000 (Fc fusion)
chain: QNITARIGEPLVLKCKGAPKKPPQRLEWKLNTGRTEAWKVLSPQGGGPWDSVARVLPNGSLFLPAVGIQDEGIFRCQAMNRNGKETKSNYRVRVYQIPGKPEIVDSASELTAGVPNKVGTCVSEGSYPAGTLSWHLDGKPLVPNEKGVSVKEQTRRHPETGLFTLQSELMVTPARGGDPRPTFSCSFSPGLPRHRALRTAPIQPRVWEPVPLEEVQLVVEPEGGAVAPPSVFLFPPKPKDTLMISRTPEVTCVVVDVSHEDPEVKFNWYVDGVEVHNAKTKPREEQYNSTYRVVSVLTVLHQDWLNGKEYKCKVSNKALPAPIEKTISKAKGQPREPQVYTLPPSRDELTKNQVSLTCLVKGFYPSDIAVEWESNGQPENNYKTTPPVLDSDGSFFLYSKLTVDKSRWQQGNVFSCSVMHEALHNHYTQKSLSLSPGK
modifications: N-terminal residue glutamine (Q) or pyroglutamic acid (pE) or a mixture thereof; glycosylation sites at N2 and N288 (numbering of the processed protein); C-terminal residue may be cleaved off
B1: the Kd in test [1] is 75 nM.

B2: RAGE fusion protein TTP-4000 (Fc fusion)
chain: QNITARIGEPLVLKCKGAPKKPPQRLEWKLNTGRTEAWKVLSPQGGGPWDSVARVLPNGSLFLPAVGIQDEGIFRCQAMNRNGKETKSNYRVRVYQIPGKPEIVDSASELTAGVPNKVGTCVSEGSYPAGTLSWHLDGKPLVPNEKGVSVKEQTRRHPETGLFTLQSELMVTPARGGDPRPTFSCSFSPGLPRHRALRTAPIQPRVWEPVPLEEVQLVVEPEGGAVAPPSVFLFPPKPKDTLMISRTPEVTCVVVDVSHEDPEVKFNWYVDGVEVHNAKTKPREEQYNSTYRVVSVLTVLHQDWLNGKEYKCKVSNKALPAPIEKTISKAKGQPREPQVYTLPPSRDELTKNQVSLTCLVKGFYPSDIAVEWESNGQPENNYKTTPPVLDSDGSFFLYSKLTVDKSRWQQGNVFSCSVMHEALHNHYTQKSLSLSPGK
modifications: N-terminal residue glutamine (Q) or pyroglutamic acid (pE) or a mixture thereof; glycosylation sites at N2 and N288 (numbering of the processed protein); C-terminal residue may be cleaved off
Turning to B2, the results for the Kd in test [2] and in test [3] were 40 nM and 77 nM, respectively.
